Experimental data from patent US20220363763A1.
Each block holds one substance with its values, some of them ahead of it.

Key:
[1] = target: human LAG3 on cells (human) (UniProt P18627); assay: flow cytometry (MFI) on Jurkat-LAG3 cells, upper panel; EC50 table has no unit, x axis Concentration (nM); fit value of a flat control curve
[2] = target: human LAG3 on cells (human) (UniProt P18627); assay: flow cytometry (MFI) on activated CD4 T cells, lower panel; EC50 table has no unit, x axis Concentration (nM); fit value of a flat control curve
[3] = target: human PD-L1 expressed on mammalian cells (human) (UniProt Q9NZQ7); assay: cell-based binding on Raji-PDL1 cells (FACS by paragraph 328; the y axis of the sheet is labelled IL2 (ng/ml)); EC50 table has no unit, x axis Concentration (nM)
Sequence of human PD-L1 expressed on mammalian cells (human) (Q9NZQ7 19-290): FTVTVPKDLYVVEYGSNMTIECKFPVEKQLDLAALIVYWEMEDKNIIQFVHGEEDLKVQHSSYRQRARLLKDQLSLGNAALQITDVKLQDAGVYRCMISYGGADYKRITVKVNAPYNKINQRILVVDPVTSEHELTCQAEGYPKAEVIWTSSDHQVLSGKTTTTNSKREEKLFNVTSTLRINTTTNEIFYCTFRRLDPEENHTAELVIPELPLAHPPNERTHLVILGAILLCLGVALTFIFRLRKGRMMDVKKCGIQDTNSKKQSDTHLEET

[4] = target: human PD-L1-Fc protein (human) (UniProt Q9NZQ7); assay: ELISA on coated human PD-L1-Fc; EC50 table has no unit, x axis Ab(nM); fit value of a flat control curve
Sequence of human PD-L1-Fc protein (human) (Q9NZQ7 19-239 limits assumed): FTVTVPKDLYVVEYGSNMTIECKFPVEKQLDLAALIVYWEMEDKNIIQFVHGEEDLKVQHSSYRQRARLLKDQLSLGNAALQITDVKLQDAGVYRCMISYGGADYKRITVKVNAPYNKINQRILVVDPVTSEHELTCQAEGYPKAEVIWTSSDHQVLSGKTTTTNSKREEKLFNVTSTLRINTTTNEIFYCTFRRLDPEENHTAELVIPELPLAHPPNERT

Sequence of human LAG3 on cells (human) (P18627 23-525): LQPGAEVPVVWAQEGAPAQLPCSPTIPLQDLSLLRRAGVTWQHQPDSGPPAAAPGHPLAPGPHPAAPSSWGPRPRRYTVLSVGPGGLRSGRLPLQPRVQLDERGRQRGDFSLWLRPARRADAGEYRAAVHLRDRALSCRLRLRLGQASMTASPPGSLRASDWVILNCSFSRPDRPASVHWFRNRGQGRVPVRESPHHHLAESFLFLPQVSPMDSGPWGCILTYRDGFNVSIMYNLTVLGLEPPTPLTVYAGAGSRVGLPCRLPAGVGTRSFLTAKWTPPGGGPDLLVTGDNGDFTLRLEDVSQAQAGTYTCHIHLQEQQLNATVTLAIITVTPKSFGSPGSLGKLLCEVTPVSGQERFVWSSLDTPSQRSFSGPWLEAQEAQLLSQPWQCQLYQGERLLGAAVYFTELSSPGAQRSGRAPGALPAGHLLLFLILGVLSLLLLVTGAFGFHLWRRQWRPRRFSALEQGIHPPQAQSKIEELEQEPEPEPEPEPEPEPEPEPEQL

EC50 [1]: 0.000463 µM
EC50 [2]: 3590 µM
Substance: IgG (antibody)

EC50 [3]: 0.000891 µM
Substance: Tecentriq (antibody)

EC50 [4]: 0.0848 µM
Substance: hIgG (antibody)
